Laboratory results taken from patent US20160272683A1 (Novo Nordisk, published 2016).
Numbered stars: 1 amine (or outer) side, 2 acyl side, 3 side chain; on linkers, the order of the positions; unused ones are H or OH. Side chains are listed from the residue outwards. Ends that are not written are not given here. * marks the point of attachment. C20 diacid = O=C(O)CCCCCCCCCCCCCCCCCCC(=O)*; C18 diacid = O=C(O)CCCCCCCCCCCCCCCCC(=O)*; γGlu = O=C(O)[C@H](CCC(=O)[*:2])N[*:1]

T1: human amylin receptor (human calcitonin receptor + human RAMP3) (human) (UniProt P30988)
T1 sequence (looked up) 1: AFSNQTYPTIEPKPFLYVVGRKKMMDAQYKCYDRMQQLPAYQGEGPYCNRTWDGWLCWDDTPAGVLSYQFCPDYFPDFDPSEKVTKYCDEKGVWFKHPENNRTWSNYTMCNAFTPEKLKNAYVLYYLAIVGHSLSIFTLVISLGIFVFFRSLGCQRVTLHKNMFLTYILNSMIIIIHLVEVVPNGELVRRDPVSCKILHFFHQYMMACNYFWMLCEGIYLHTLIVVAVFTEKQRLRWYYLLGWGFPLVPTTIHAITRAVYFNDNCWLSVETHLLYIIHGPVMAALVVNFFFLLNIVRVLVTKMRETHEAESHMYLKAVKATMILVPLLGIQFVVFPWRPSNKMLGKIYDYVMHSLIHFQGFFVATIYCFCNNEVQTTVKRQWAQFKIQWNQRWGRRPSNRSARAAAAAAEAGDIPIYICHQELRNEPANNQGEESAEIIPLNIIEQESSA
T1 sequence (looked up) 2: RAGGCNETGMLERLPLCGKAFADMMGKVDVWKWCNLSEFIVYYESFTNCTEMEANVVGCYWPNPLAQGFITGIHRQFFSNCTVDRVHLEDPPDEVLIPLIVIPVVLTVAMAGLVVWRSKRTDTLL


Target: T1, human amylin receptor (human calcitonin receptor + human RAMP3) (human)
Assay: whole-cell competition vs 125I-rat amylin (Assay Va)

Binder	IC50
{C20 diacid-γGlu}-LSGLSTAVLGRLSAELHELSTYPRTETGSGTY-NH2 (SMILES CC(C)C[C@H](NC(=O)CC[C@H](NC(=O)CCCCCCCCCCCCCCCCCCC(=O)O)C(=O)O)C(=O)N[C@@H](CO)C(=O)NCC(=O)N[C@@H](CC(C)C)C(=O)N[C@@H](CO)C(=O)N[C@H](C(=O)N[C@@H](C)C(=O)N[C@H](C(=O)N[C@@H](CC(C)C)C(=O)NCC(=O)N[C@@H](CCCNC(=N)N)C(=O)N[C@@H](CC(C)C)C(=O)N[C@@H](CO)C(=O)N[C@@H](C)C(=O)N[C@@H](CCC(=O)O)C(=O)N[C@@H](CC(C)C)C(=O)N[C@@H](Cc1c[nH]cn1)C(=O)N[C@@H](CCC(=O)O)C(=O)N[C@@H](CC(C)C)C(=O)N[C@@H](CO)C(=O)N[C@H](C(=O)N[C@@H](Cc1ccc(O)cc1)C(=O)N1CCC[C@H]1C(=O)N[C@@H](CCCNC(=N)N)C(=O)N[C@H](C(=O)N[C@@H](CCC(=O)O)C(=O)N[C@H](C(=O)NCC(=O)N[C@@H](CO)C(=O)NCC(=O)N[C@H](C(=O)N[C@@H](Cc1ccc(O)cc1)C(N)=O)[C@@H](C)O)[C@@H](C)O)[C@@H](C)O)[C@@H](C)O)C(C)C)[C@@H](C)O) [[N-terminal(C20 diacid-gGlu), des1, 2L, 4G, 9V, 21S, 23Y, 30S, 31G, 32T, 33Y]mimylin]	11.8 nM
{C18 diacid-γGlu}-ASELTTAVLGRLEAELHELTTLPRTETGTGTP-NH2 [[N-terminal(C18 diacid-gGlu), des1, 6T, 9V, 14E, 21T, 30T, 31G, 32T]mimylin]	19.7 nM
{C20 diacid-γGlu}-ASGLSTATLGRLSQELHELQTYPRTETGSGTY-NH2 [[N-terminal(C20 diacid-gGlu), des1, 4G, 9T, 15Q, 21Q, 23Y, 30S, 31G, 32T, 33Y]mimylin]	0.079 nM
{C20 diacid-γGlu}-EASQLSTAVLGRLSQELHELQTYPRTGTGSGTY-NH2 (SMILES CC(C)C[C@H](NC(=O)[C@H](CCCNC(=N)N)NC(=O)CNC(=O)[C@H](CC(C)C)NC(=O)[C@@H](NC(=O)[C@H](C)NC(=O)[C@@H](NC(=O)[C@H](CO)NC(=O)[C@H](CC(C)C)NC(=O)[C@H](CCC(N)=O)NC(=O)[C@H](CO)NC(=O)[C@H](C)NC(=O)[C@H](CCC(=O)O)NC(=O)CC[C@H](NC(=O)CCCCCCCCCCCCCCCCCCC(=O)O)C(=O)O)[C@@H](C)O)C(C)C)C(=O)N[C@@H](CO)C(=O)N[C@@H](CCC(N)=O)C(=O)N[C@@H](CCC(=O)O)C(=O)N[C@@H](CC(C)C)C(=O)N[C@@H](Cc1c[nH]cn1)C(=O)N[C@@H](CCC(=O)O)C(=O)N[C@@H](CC(C)C)C(=O)N[C@@H](CCC(N)=O)C(=O)N[C@H](C(=O)N[C@@H](Cc1ccc(O)cc1)C(=O)N1CCC[C@H]1C(=O)N[C@@H](CCCNC(=N)N)C(=O)N[C@H](C(=O)NCC(=O)N[C@H](C(=O)NCC(=O)N[C@@H](CO)C(=O)NCC(=O)N[C@H](C(=O)N[C@@H](Cc1ccc(O)cc1)C(N)=O)[C@@H](C)O)[C@@H](C)O)[C@@H](C)O)[C@@H](C)O) [[N-terminal(C20 diacid-gGlu), 4Q, 9V, 15Q, 21Q, 23Y, 27G, 30S, 31G, 32T, 33Y]mimylin]	0.338 nM
{C18 diacid-γGlu}-ASEVSTAVVGRLSAELHEVATLPRTETGSGSP-NH2 (SMILES CC(C)C[C@H](NC(=O)[C@H](CCCNC(=N)N)NC(=O)CNC(=O)[C@@H](NC(=O)[C@@H](NC(=O)[C@H](C)NC(=O)[C@@H](NC(=O)[C@H](CO)NC(=O)[C@@H](NC(=O)[C@H](CCC(=O)O)NC(=O)[C@H](CO)NC(=O)[C@H](C)NC(=O)CC[C@H](NC(=O)CCCCCCCCCCCCCCCCC(=O)O)C(=O)O)C(C)C)[C@@H](C)O)C(C)C)C(C)C)C(=O)N[C@@H](CO)C(=O)N[C@@H](C)C(=O)N[C@@H](CCC(=O)O)C(=O)N[C@@H](CC(C)C)C(=O)N[C@@H](Cc1c[nH]cn1)C(=O)N[C@@H](CCC(=O)O)C(=O)N[C@H](C(=O)N[C@@H](C)C(=O)N[C@H](C(=O)N[C@@H](CC(C)C)C(=O)N1CCC[C@H]1C(=O)N[C@@H](CCCNC(=N)N)C(=O)N[C@H](C(=O)N[C@@H](CCC(=O)O)C(=O)N[C@H](C(=O)NCC(=O)N[C@@H](CO)C(=O)NCC(=O)N[C@@H](CO)C(=O)N1CCC[C@H]1C(N)=O)[C@@H](C)O)[C@@H](C)O)[C@@H](C)O)C(C)C) [[N-terminal(C18 diacid-gGlu), des1, 5V, 9V, 10V, 20V, 30S, 31G]mimylin]	1.65 nM
{C20 diacid}-ASGLSTAALGRLSQELHELQTYPRTETGSGTY-NH2 (SMILES CC(C)C[C@H](NC(=O)CNC(=O)[C@H](CO)NC(=O)[C@H](C)NC(=O)CCCCCCCCCCCCCCCCCCC(=O)O)C(=O)N[C@@H](CO)C(=O)N[C@H](C(=O)N[C@@H](C)C(=O)N[C@@H](C)C(=O)N[C@@H](CC(C)C)C(=O)NCC(=O)N[C@@H](CCCNC(=N)N)C(=O)N[C@@H](CC(C)C)C(=O)N[C@@H](CO)C(=O)N[C@@H](CCC(N)=O)C(=O)N[C@@H](CCC(=O)O)C(=O)N[C@@H](CC(C)C)C(=O)N[C@@H](Cc1c[nH]cn1)C(=O)N[C@@H](CCC(=O)O)C(=O)N[C@@H](CC(C)C)C(=O)N[C@@H](CCC(N)=O)C(=O)N[C@H](C(=O)N[C@@H](Cc1ccc(O)cc1)C(=O)N1CCC[C@H]1C(=O)N[C@@H](CCCNC(=N)N)C(=O)N[C@H](C(=O)N[C@@H](CCC(=O)O)C(=O)N[C@H](C(=O)NCC(=O)N[C@@H](CO)C(=O)NCC(=O)N[C@H](C(=O)N[C@@H](Cc1ccc(O)cc1)C(N)=O)[C@@H](C)O)[C@@H](C)O)[C@@H](C)O)[C@@H](C)O)[C@@H](C)O) [[N-terminal(C20 diacid), des1, 4G, 15Q, 21Q, 23Y, 30S, 31G, 32T, 33Y]mimylin]	0.222 nM

Other lines, results leading:

IC50	Binder
0.431 nM	{C20 diacid-γGlu}-ASGLSTAALGRLSTELHELETYPRTETGSGTY-NH2 (SMILES CC(C)C[C@H](NC(=O)CNC(=O)[C@H](CO)NC(=O)[C@H](C)NC(=O)CC[C@H](NC(=O)CCCCCCCCCCCCCCCCCCC(=O)O)C(=O)O)C(=O)N[C@@H](CO)C(=O)N[C@H](C(=O)N[C@@H](C)C(=O)N[C@@H](C)C(=O)N[C@@H](CC(C)C)C(=O)NCC(=O)N[C@@H](CCCNC(=N)N)C(=O)N[C@@H](CC(C)C)C(=O)N[C@@H](CO)C(=O)N[C@H](C(=O)N[C@@H](CCC(=O)O)C(=O)N[C@@H](CC(C)C)C(=O)N[C@@H](Cc1c[nH]cn1)C(=O)N[C@@H](CCC(=O)O)C(=O)N[C@@H](CC(C)C)C(=O)N[C@@H](CCC(=O)O)C(=O)N[C@H](C(=O)N[C@@H](Cc1ccc(O)cc1)C(=O)N1CCC[C@H]1C(=O)N[C@@H](CCCNC(=N)N)C(=O)N[C@H](C(=O)N[C@@H](CCC(=O)O)C(=O)N[C@H](C(=O)NCC(=O)N[C@@H](CO)C(=O)NCC(=O)N[C@H](C(=O)N[C@@H](Cc1ccc(O)cc1)C(N)=O)[C@@H](C)O)[C@@H](C)O)[C@@H](C)O)[C@@H](C)O)[C@@H](C)O)[C@@H](C)O) [[N-terminal(C20 diacid-gGlu), des1, 4G, 15T, 21E, 23Y, 30S, 31G, 32T, 33Y]mimylin]
0.244 nM	{C20 diacid-γGlu}-ASGLSTAVLGRLSQELHELQTYPRTETGSATY-NH2 (SMILES CC(C)C[C@H](NC(=O)CNC(=O)[C@H](CO)NC(=O)[C@H](C)NC(=O)CC[C@H](NC(=O)CCCCCCCCCCCCCCCCCCC(=O)O)C(=O)O)C(=O)N[C@@H](CO)C(=O)N[C@H](C(=O)N[C@@H](C)C(=O)N[C@H](C(=O)N[C@@H](CC(C)C)C(=O)NCC(=O)N[C@@H](CCCNC(=N)N)C(=O)N[C@@H](CC(C)C)C(=O)N[C@@H](CO)C(=O)N[C@@H](CCC(N)=O)C(=O)N[C@@H](CCC(=O)O)C(=O)N[C@@H](CC(C)C)C(=O)N[C@@H](Cc1c[nH]cn1)C(=O)N[C@@H](CCC(=O)O)C(=O)N[C@@H](CC(C)C)C(=O)N[C@@H](CCC(N)=O)C(=O)N[C@H](C(=O)N[C@@H](Cc1ccc(O)cc1)C(=O)N1CCC[C@H]1C(=O)N[C@@H](CCCNC(=N)N)C(=O)N[C@H](C(=O)N[C@@H](CCC(=O)O)C(=O)N[C@H](C(=O)NCC(=O)N[C@@H](CO)C(=O)N[C@@H](C)C(=O)N[C@H](C(=O)N[C@@H](Cc1ccc(O)cc1)C(N)=O)[C@@H](C)O)[C@@H](C)O)[C@@H](C)O)[C@@H](C)O)C(C)C)[C@@H](C)O) [[N-terminal(C20 diacid-gGlu), des1, 4G, 9V, 15Q, 21Q, 23Y, 30S, 31A, 32T, 33Y]mimylin]
5.45 nM	ASGLSTAALGRLSQELHELQTYPRTETGSK([γGlu-C20 diacid])TY-NH2 (N-terminus assumed; SMILES CC(C)C[C@H](NC(=O)CNC(=O)[C@H](CO)NC(=O)[C@H](C)N)C(=O)N[C@@H](CO)C(=O)N[C@H](C(=O)N[C@@H](C)C(=O)N[C@@H](C)C(=O)N[C@@H](CC(C)C)C(=O)NCC(=O)N[C@@H](CCCNC(=N)N)C(=O)N[C@@H](CC(C)C)C(=O)N[C@@H](CO)C(=O)N[C@@H](CCC(N)=O)C(=O)N[C@@H](CCC(=O)O)C(=O)N[C@@H](CC(C)C)C(=O)N[C@@H](Cc1c[nH]cn1)C(=O)N[C@@H](CCC(=O)O)C(=O)N[C@@H](CC(C)C)C(=O)N[C@@H](CCC(N)=O)C(=O)N[C@H](C(=O)N[C@@H](Cc1ccc(O)cc1)C(=O)N1CCC[C@H]1C(=O)N[C@@H](CCCNC(=N)N)C(=O)N[C@H](C(=O)N[C@@H](CCC(=O)O)C(=O)N[C@H](C(=O)NCC(=O)N[C@@H](CO)C(=O)N[C@@H](CCCCNC(=O)CC[C@H](NC(=O)CCCCCCCCCCCCCCCCCCC(=O)O)C(=O)O)C(=O)N[C@H](C(=O)N[C@@H](Cc1ccc(O)cc1)C(N)=O)[C@@H](C)O)[C@@H](C)O)[C@@H](C)O)[C@@H](C)O)[C@@H](C)O) [[des1, 4G, 15Q, 21Q, 23Y, 30S, 31K(C20 diacid-gGlu), 32T, 33Y]mimylin]
